According to patent US20120316071A1 (published 2012):

Experiments:
[1] = biological target: T1, Recombinant Human DLL4 (R&D Systems Cat#1506-D4/CF) (human, UniProt Q9NR61 27-524); experiment: MSD Multispot ECL, antigen spotted on plate, Fab at 60 nM; blank spot 237
T1 construct: Bought recombinant protein; also called rHuman DLL4; delta-like protein 4

[2] = biological target: T2, rHuman CD44/Fc Chimera, CF (R&D Systems Cat#3660-CD) (human, UniProt P16070 21-220); experiment: as above
T2 construct: Bought Fc chimera; Fc part of the bought chimera not given

[3] = biological target: T3, rHuman Notch-1/Fc Chimera, CF (R&D Systems Cat#3647-TK) (human, UniProt P46531 19-526); experiment: MSD multispot ECL, antigen spotted on plate, Fab 44.1 nM; blank spot 200
T3 construct: Bought from R&D Systems; not shown: Fc of the bought chimera

[4] = biological target: T4, rHuman ErbB2/Fc Chimera, CF (R&D Systems Cat#1129-ER) (human, UniProt P04626 23-652); experiment: as above
T4 construct: Bought from R&D Systems; also called human epidermal growth factor 2 receptor (ErbB2); not shown: Fc of the bought chimera

[5] = biological target: T5, rHuman EGF R/Fc Chimera, CF (R&D Systems Cat#344-ER) (human, UniProt P00533 25-645); experiment: as above
T5 construct: Bought from R&D Systems; also called epidermal growth factor receptor (EGF R); not shown: Fc of the bought chimera

[6] = biological target: T6, rHuman HGF R/c-MET/Fc Chimera, CF (R&D Systems Cat#358-MT/CF) (human, UniProt P08581 25-932); experiment: as above
T6 construct: Bought from R&D Systems; also called HGF R/Fc; hepatocyte growth factor receptor (HGF R/c-Met); not shown: Fc of the bought chimera
T6 sequence (P08581 25-932, change not shown): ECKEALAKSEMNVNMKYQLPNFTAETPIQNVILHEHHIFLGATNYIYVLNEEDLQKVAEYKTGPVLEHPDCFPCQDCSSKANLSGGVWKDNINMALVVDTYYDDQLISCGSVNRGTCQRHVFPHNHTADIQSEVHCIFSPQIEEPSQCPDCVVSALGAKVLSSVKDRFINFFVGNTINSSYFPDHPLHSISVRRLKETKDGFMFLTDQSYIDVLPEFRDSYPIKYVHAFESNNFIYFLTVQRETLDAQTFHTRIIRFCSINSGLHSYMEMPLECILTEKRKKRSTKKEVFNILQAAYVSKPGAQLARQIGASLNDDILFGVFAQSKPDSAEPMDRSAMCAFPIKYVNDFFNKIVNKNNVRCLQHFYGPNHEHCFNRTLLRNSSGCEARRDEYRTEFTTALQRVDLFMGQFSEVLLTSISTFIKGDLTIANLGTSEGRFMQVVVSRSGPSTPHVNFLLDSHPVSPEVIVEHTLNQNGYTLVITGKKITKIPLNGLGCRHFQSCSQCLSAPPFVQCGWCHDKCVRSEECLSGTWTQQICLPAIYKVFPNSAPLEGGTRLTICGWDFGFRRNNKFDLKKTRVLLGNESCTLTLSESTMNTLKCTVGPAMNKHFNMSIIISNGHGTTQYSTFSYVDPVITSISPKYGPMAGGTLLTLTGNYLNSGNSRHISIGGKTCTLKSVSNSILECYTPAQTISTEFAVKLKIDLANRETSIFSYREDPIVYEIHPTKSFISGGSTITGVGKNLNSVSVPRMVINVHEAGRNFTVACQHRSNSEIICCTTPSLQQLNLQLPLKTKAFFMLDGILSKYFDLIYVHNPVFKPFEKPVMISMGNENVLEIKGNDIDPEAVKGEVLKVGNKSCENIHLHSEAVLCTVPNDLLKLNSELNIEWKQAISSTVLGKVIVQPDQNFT

[7] = biological target: T7, rHuman IGF-1 sR, (IGF-1 sR), CF (R&D Systems Cat#391-GR) (human, UniProt P08069 31-932); experiment: as above
T7 construct: Bought from R&D Systems and called a soluble receptor; also called insulin-like growth factor-1 soluble receptor

[8] = biological target: T8, rHuman CD44/Fc Chimera, CF (R&D Systems Cat#3660-CD) (human, UniProt P16070 21-220); experiment: as above
T8 construct: Bought from R&D Systems; not shown: Fc of the bought chimera

[9] = biological target: T9, Recombinant Human DLL4 (R&D Systems Cat#1506-D4/CF) (human, UniProt Q9NR61 27-524); experiment: as above
T9 construct: Bought from R&D Systems; also called rHuman DLL4; delta-like protein 4

[10] = biological target: T10, rHuman Erythropoietin R/Fc Chimera, CF (R&D Systems Cat#963-ER) (human, UniProt P19235 25-250); experiment: as above
T10 construct: Bought from R&D Systems; also called EPO R/Fc; Epo R/Fc chimera; not shown: Fc of the bought chimera
T10 sequence (looked up): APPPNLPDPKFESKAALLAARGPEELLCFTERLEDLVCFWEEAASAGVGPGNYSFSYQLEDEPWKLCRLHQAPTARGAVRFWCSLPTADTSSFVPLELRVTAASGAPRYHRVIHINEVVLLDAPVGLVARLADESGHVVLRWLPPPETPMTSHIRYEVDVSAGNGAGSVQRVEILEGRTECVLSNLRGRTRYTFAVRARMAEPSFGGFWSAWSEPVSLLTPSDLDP

[11] = biological target: T11, rHuman P-Cadherin/Fc Chimera, CF (R&D Systems Cat#861-PC) (human, UniProt P22223 108-654); experiment: as above
T11 construct: Bought from R&D Systems; not shown: Fc of the bought chimera

[12] = biological target: T12, rHuman EGF R/Fc Chimera, CF (R&D Systems Cat#344-ER) (human, UniProt P00533 25-645); experiment: MSD multispot ECL, antigen spotted on plate; Fab 0.00797 uM; blank spot 364
T12 construct: Bought recombinant protein; also called epidermal growth factor receptor; Fc part of the bought chimera not given

[13] = biological target: T13, rHuman Notch-1/Fc Chimera, CF (R&D Systems Cat#3647-TK) (human, UniProt P46531 19-526); experiment: as above
T13 construct: Bought recombinant protein; Fc part of the bought chimera not given

[14] = biological target: T14, rHuman P-Cadherin/Fc Chimera, CF (R&D Systems Cat#861-PC) (human, UniProt P22223 108-654); experiment: as above
T14 construct: Bought recombinant protein; Fc part of the bought chimera not given

[15] = biological target: T15, Recombinant Human DLL4 (R&D Systems Cat#1506-D4/CF) (human, UniProt Q9NR61 27-524); experiment: as above
T15 construct: Bought recombinant protein; also called delta-like protein 4; rHuman DLL4

[16] = biological target: T16, rHuman IGF-1 sR, CF (R&D Systems Cat#391-GR) (human, UniProt P08069 31-932); experiment: as above
T16 construct: Bought recombinant soluble receptor; also called insulin-like growth factor-1 soluble receptor

[17] = biological target: T17, rHuman ErbB2/Fc Chimera, CF (R&D Systems Cat#1129-ER) (human, UniProt P04626 23-652); experiment: as above
T17 construct: Bought recombinant protein; also called human epidermal growth factor 2 receptor; Fc part of the bought chimera not given

[18] = biological target: T18, rHuman Erythropoietin R/Fc Chimera, CF (R&D Systems Cat#963-ER) (human, UniProt P19235 25-250); experiment: as above
T18 construct: Bought recombinant protein; also called EPO R/Fc; Epo R; Fc part of the bought chimera not given
T18 sequence (looked up): T10 sequence (looked up)

B1: Fab VH6-1_IGHD3-3*01_IGHJ4*01 & V4-3_IGLJ4*01 (Fab, V domains shown)
VH: QVQLQQSGPGLVKPSQTLSLTCAISGDSVSSNSAAWNWIRQSPSRGLEWLGRTYYRSKWYNDYAVSVKSRITINPDTSKNQFSLQLNSVTPEDTAVYYCAREYYDFWSGYYTDYFDYWGQGTLVTVSS
VL: QPVLTQPTSLSASPGASARLTCTLRSGINLGSYRIFWYQQKPESPPRYLLSYYSDSSKHQGSGVPSRFSGSKDASSNAGILVISGLQSEDEADYYCMIWHSSASFVFGGGTQLIIL
notes: Tested as a purified germline Fab made in E. coli; The VH was cloned into plasmid A (CH1 constant region, His6 and Flag tags) and the lambda VL into plasmid E (lambda CL)
[1]
  ECL signal: 875
[2]
  ECL signal: 434

B2: Fab VH1-46_IGHD3-10*01_IGHJ4*01 & B3_IGKJ1*01 (Fab, V domains shown)
VH: QVQLVQSGAEVKKPGASVKVSCKASGYTFTSYYMHWVRQAPGQGLEWMGIINPSGGSTSYAQKFQGRVTMTRDTSTSTVYMELSSLRSEDTAVYYCAREYYYGSGSYYNDYFDYWGQGTLVTVSS
VL: not shown
notes: Tested as a Fab made in E. coli; VH was cloned into Plasmid A (CH1 constant region, His6 and Flag tags); The kappa VL was cloned into Plasmid C (kappa CL)
[3]
  ECL signal: 331
[4]
  ECL signal: 347
[5]
  ECL signal: 428
[6]
  ECL signal: 336
[7]
  ECL signal: 309
[8]
  ECL signal: 302
[9]
  ECL signal: 388
[10]
  ECL signal: 2390
[11]
  ECL signal: 343

B3: Fab VH4-34_IGHD7-27*01_IGHJ4*01 & L5_IGKJ1*01 (Fab, V domains shown)
VH: QVQLQQWGAGLLKPSETLSLTCAVYGGSFSGYYWSWIRQPPGKGLEWIGEINHSGSTNYNPSLKSRVTISVDTSKNQFSLKLSSVTAADTAVYYCARANWGDYFDYWGQGTLVTVSS
VL: DIQMTQSPSSVSASVGDRVTITCRASQGISSWLAWYQQKPGKAPKLLIYAASSLQSGVPSRFSGSGSGTDFTLTISSLQPEDFATYYCQQANSFPPWTFGQGTKVEIKR
notes: Germline library Fab expressed in E. coli; VH was cloned into Plasmid A, which adds CH1 with His6 and Flag tags
[12]
  ECL signal: 530
[13]
  ECL signal: 654
[14]
  ECL signal: 502
[15]
  ECL signal: 872
[16]
  ECL signal: 564
[17]
  ECL signal: 493
[18]
  ECL signal: 566
